Measured values taken from the supplement of paper PMC10065799, “High-throughput profiling of sequence recognition by tyrosine kinases and SH2 domains using bacterial peptide display” (eLife, 2023).

What was measured:
c-Src SH2 = experiment: SH2 binding enrichment of the phosphorylated peptide, bacterial display (enrichment ratio); higher = better substrate or ligand; peptides without Tyr show the background
SHP2-C SH2 = experiment: as above
Grb2 SH2 = Grb2 SH2 (UniProt P62993); experiment: as above
Grb2 SH2, sequence (P62993 whole entry, looked up): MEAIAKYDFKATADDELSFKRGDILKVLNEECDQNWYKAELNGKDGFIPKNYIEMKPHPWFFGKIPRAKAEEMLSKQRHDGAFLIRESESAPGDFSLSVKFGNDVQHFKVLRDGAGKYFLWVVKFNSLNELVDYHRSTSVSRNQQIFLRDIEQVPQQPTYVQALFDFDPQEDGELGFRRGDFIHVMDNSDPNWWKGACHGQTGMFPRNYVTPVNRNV

FGFR3 = FGFR3 (UniProt P22607); experiment: phosphorylation enrichment, bacterial display (enrichment ratio); higher = better substrate or ligand; peptides without Tyr show the background
MERTK = MERTK (UniProt Q12866); experiment: as above
MERTK, sequence (Q12866 whole entry, looked up): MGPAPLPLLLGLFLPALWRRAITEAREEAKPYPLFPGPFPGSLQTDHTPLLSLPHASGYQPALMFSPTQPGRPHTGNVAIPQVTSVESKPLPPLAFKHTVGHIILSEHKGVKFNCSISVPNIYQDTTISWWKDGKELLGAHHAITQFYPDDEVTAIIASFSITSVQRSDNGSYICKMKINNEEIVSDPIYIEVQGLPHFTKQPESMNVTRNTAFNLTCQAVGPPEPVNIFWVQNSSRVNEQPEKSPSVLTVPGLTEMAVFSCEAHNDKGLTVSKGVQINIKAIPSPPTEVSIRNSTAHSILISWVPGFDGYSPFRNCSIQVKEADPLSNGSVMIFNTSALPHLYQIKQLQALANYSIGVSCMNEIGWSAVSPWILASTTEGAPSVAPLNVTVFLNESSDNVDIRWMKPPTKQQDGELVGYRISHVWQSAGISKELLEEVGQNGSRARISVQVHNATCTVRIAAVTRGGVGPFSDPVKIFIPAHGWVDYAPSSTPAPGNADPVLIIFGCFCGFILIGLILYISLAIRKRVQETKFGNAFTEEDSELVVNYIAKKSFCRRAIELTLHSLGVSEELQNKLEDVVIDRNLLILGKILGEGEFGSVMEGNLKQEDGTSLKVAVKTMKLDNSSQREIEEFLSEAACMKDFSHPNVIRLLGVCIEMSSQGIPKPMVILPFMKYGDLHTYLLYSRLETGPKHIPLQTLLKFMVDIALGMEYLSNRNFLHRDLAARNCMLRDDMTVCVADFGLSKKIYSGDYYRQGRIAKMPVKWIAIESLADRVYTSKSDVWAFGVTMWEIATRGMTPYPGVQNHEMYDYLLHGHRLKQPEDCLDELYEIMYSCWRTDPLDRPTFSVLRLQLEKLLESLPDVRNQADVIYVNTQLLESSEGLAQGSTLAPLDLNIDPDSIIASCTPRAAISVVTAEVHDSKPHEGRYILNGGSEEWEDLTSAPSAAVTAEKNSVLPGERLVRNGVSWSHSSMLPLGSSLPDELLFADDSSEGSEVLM

Hck = Hck (UniProt P08631); experiment: as above
EPHB1 = EPHB1 (UniProt P54762); experiment: as above
Fyn = Fyn (UniProt P06241); experiment: as above
Fyn, sequence (P06241 whole entry, looked up): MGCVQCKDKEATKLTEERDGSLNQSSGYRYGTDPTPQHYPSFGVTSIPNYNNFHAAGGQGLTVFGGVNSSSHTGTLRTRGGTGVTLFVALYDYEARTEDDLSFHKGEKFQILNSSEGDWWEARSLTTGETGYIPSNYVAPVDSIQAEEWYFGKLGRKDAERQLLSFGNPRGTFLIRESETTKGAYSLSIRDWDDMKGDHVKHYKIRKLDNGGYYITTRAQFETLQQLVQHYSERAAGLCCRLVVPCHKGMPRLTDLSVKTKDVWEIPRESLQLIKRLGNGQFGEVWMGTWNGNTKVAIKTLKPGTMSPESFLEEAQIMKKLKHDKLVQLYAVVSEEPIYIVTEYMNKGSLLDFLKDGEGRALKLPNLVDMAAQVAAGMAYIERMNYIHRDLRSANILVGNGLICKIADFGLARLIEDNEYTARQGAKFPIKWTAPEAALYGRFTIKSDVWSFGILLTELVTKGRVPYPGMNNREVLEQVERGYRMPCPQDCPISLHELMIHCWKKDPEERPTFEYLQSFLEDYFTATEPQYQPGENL

Jak2 = Jak2 (UniProt O60674); experiment: as above
Jak2, sequence (O60674 whole entry, looked up): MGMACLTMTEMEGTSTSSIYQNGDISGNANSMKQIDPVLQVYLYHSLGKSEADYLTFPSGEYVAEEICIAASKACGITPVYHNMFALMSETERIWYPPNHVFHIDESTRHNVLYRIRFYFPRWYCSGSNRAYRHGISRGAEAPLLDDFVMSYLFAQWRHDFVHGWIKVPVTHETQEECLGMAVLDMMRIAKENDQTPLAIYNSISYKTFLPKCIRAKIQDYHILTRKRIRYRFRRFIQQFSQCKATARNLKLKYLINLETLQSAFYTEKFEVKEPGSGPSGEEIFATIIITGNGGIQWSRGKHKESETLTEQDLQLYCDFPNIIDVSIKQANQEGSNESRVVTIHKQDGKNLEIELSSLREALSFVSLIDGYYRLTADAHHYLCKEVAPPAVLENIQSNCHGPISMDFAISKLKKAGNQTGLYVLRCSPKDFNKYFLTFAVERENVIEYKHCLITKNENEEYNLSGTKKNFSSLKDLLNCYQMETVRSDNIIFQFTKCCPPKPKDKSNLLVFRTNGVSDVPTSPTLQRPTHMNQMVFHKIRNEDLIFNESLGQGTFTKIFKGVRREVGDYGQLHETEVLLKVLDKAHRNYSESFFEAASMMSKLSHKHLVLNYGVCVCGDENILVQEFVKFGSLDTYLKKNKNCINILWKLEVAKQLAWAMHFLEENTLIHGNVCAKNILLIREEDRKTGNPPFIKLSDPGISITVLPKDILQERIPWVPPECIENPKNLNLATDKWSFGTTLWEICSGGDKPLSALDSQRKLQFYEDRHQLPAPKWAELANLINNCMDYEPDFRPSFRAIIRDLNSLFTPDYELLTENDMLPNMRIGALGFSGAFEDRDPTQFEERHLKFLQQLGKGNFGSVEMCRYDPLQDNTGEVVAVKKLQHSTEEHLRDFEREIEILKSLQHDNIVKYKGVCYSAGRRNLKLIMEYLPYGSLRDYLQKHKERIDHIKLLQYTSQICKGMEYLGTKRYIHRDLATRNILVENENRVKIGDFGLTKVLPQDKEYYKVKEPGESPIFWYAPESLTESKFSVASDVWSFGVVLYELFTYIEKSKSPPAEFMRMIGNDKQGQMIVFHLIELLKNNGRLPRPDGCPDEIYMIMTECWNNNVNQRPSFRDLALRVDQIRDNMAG

c-Src = experiment: as above
EPHB2 = EPHB2 (UniProt P29323); experiment: as above
EPHB2, sequence (P29323 whole entry, looked up): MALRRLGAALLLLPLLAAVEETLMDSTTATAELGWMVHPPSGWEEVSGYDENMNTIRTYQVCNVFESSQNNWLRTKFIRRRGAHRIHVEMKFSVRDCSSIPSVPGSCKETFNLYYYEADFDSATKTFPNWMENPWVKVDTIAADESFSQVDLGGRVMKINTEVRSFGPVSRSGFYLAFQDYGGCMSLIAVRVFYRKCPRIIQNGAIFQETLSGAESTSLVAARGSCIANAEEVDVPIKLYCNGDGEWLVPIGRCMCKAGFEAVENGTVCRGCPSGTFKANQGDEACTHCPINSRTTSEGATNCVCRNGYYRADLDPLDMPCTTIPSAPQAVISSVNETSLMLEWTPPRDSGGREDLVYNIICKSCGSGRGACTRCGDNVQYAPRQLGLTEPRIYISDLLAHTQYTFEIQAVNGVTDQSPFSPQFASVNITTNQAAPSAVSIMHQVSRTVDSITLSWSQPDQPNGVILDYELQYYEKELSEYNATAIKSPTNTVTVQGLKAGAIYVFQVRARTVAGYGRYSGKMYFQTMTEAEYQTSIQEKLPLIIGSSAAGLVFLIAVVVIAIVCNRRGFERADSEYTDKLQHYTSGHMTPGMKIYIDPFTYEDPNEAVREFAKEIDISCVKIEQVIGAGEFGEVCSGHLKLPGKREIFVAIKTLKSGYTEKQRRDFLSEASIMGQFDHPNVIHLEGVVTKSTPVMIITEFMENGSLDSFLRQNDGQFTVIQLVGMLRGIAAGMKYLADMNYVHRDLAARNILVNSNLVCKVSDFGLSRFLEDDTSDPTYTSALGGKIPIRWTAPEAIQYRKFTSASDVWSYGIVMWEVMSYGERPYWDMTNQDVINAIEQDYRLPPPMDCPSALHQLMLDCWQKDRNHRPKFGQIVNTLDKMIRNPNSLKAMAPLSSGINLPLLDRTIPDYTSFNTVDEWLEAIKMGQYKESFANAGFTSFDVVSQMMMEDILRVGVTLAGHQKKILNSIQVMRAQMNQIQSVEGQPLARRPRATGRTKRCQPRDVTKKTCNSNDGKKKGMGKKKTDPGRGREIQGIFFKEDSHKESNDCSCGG

Fes = Fes (UniProt P07332); experiment: as above
AncSZ = experiment: as above
Fer (mouse) = experiment: as above
FGFR1 = FGFR1 (UniProt P11362); experiment: as above
FGFR1, sequence (P11362 whole entry, looked up): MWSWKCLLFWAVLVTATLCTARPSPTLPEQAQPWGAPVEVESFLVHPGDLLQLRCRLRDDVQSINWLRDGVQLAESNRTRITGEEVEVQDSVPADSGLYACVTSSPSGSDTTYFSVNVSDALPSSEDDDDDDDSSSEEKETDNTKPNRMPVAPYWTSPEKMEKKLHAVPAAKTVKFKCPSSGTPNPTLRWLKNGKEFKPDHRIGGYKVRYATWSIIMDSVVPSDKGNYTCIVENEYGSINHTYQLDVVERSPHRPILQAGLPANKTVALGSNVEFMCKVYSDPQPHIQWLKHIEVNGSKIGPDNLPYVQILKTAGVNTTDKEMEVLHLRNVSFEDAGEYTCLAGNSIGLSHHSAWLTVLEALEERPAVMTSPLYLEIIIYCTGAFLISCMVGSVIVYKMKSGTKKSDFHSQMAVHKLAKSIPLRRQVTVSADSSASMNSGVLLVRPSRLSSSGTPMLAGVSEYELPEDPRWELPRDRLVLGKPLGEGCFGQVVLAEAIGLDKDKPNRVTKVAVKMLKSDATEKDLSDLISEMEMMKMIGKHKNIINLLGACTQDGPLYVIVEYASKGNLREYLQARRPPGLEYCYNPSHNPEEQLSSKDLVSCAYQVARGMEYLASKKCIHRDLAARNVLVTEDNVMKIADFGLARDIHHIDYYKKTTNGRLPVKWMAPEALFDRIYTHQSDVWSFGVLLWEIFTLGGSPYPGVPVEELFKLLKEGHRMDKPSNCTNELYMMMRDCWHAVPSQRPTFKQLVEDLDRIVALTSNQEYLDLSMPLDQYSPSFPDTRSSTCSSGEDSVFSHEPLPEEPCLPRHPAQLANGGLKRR

c-Abl (mouse) = experiment: as above
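Wherever SH2 binding enrichment of the phosphorylated peptide, bacterial display is given: peptide library displayed on the E. coli surface as eCPX fusions, selected cells deep-sequenced, score is each peptide's frequency after selection divided by its frequency in the input.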
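Wherever phosphorylation enrichment, bacterial display is given: 11-residue human phosphosite peptides and single-mutation variants displayed on the E. coli surface, counted by deep sequencing, each peptide's frequency after selection divided by its frequency in the unselected input library; frequency after pTyr selection over input frequency; kinase dosed for 20-30% of maximal phosphorylation in three min.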

Row | Sequence | SH2 binding enrichment (c-Src SH2) | SH2 binding enrichment (SHP2-C SH2) | SH2 binding enrichment (Grb2 SH2) | phosphorylation enrichment (FGFR3) | phosphorylation enrichment (MERTK) | phosphorylation enrichment (Hck) | phosphorylation enrichment (EPHB1) | phosphorylation enrichment (Fyn) | phosphorylation enrichment (Jak2) | phosphorylation enrichment (c-Src) | phosphorylation enrichment (EPHB2) | phosphorylation enrichment (Fes) | phosphorylation enrichment (AncSZ) | phosphorylation enrichment (Fer (mouse)) | phosphorylation enrichment (FGFR1) | phosphorylation enrichment (c-Abl (mouse))
1 | CSPLLYRVIMS [OR8D4_Y132] | 0.393 | 0.571 | 0.825 | 0.75 | 0.507 | 0.6 | 0.691 | 0.527 | 0.992 | 0.449 | 0.695 | 1.25 | 1.22 | 0.577 | 0.611 | 0.851
2 | AVAFVYYKSIG [ADGRL4_Y301] | 0.76 | 0.758 | 1.02 | 0.641 | 0.401 | 0.463 | 0.615 | 0.458 | 1.2 | 0.489 | 0.585 | 1.29 | 1.18 | 0.53 | 0.451 | 0.67
3 | LRAGVYREKDQ [DNM2_Y626_P627R] | 0.427 | 0.478 | 0.646 | 0.524 | 0.398 | 0.449 | 0.392 | 0.35 | 0.38 | 0.448 | 0.295 | 0.636 | 0.882 | 0.349 | 0.335 | 0.514
4 | VRTGIYHGGKP [PIK3CA_Y361_E365K] | 0.63 | 0.915 | 0.898 | 0.275 | 0.294 | 0.713 | 0.268 | 0.309 | 0.464 | 0.318 | 0.336 | 0.499 | 0.451 | 0.359 | 0.456 | 0.501
5 | ASMAKYYASEI [ACADSB_Y372] | 0.575 | 0.554 | 0.849 | 0.576 | 0.731 | 0.515 | 0.404 | 0.491 | 0.92 | 0.595 | 0.32 | 0.761 | 0.701 | 0.38 | 0.483 | 0.717
6 | SLFNGYVFSGM [NEIL3_Y71_V76M_YF] | 1.45 | 1.1 | 0.938 | 0.629 | 0.435 | 0.531 | 0.532 | 0.421 | 1.08 | 0.482 | 0.541 | 1.07 | 0.954 | 0.504 | 0.487 | 0.697
7 | IGRHAYGDQYR [IDH1_Y135] | 0.657 | 0.681 | 1.03 | 0.447 | 0.314 | 0.327 | 0.434 | 0.371 | 0.534 | 0.381 | 0.406 | 0.599 | 0.56 | 0.417 | 0.398 | 0.462
8 | CLAKMYYSAVE [CP_Y539_D544E] | 2.57 | 0.971 | 0.828 | 0.885 | 2.82 | 0.606 | 0.863 | 0.563 | 0.831 | 0.725 | 0.901 | 1.19 | 1.04 | 1.35 | 0.861 | 0.651
9 | TVLGEYASPKG [CYP24A1_Y407_L409S] | 0.596 | 0.793 | 1.02 | 0.482 | 0.513 | 0.578 | 0.508 | 0.498 | 0.561 | 0.468 | 0.612 | 0.619 | 0.733 | 0.371 | 0.405 | 3.4
10 | NTQRPYYKGGG [TYROBP_Y111] | 0.736 | 1.39 | 1.21 | 0.421 | 0.415 | 0.431 | 0.331 | 0.305 | 0.601 | 0.432 | 0.383 | 0.592 | 0.516 | 0.411 | 0.511 | 0.427
11 | YLENYYDLKKD [MMP3_Y42] | 0.908 | 0.821 | 0.904 | 7.09 | 1.81 | 3.17 | 6.01 | 3.76 | 1.61 | 2.31 | 3.03 | 1.27 | 1.83 | 0.759 | 9.43 | 0.957
12 | RSDEDYLCREE [POR_Y573_Y575C] | 0.595 | 0.749 | 0.947 | 1.27 | 0.785 | 0.769 | 0.747 | 0.716 | 1.34 | 0.765 | 0.737 | 2.34 | 1.54 | 0.951 | 0.623 | 1.01
13 | ERLWDCGMSSS [F8_Y1728_Y1728C] | 0.634 | 0.9 | 1.15 | 0.537 | 0.387 | 0.451 | 0.535 | 0.517 | 0.74 | 0.388 | 0.52 | 0.771 | 0.803 | 0.371 | 0.553 | 0.49
14 | IHHIDYFKKTT [FGFR1_Y653_YF] | 0.526 | 0.526 | 0.585 | 0.642 | 0.444 | 0.52 | 0.36 | 0.561 | 0.613 | 0.545 | 0.385 | 0.822 | 0.718 | 0.398 | 0.481 | 0.501
15 | PIDLFYLMDLS [ITGB2_Y131_YF] | 0.524 | 0.88 | 0.957 | 1.13 | 0.728 | 0.771 | 0.737 | 0.599 | 1.22 | 1.52 | 0.559 | 1.99 | 1.61 | 0.426 | 0.633 | 0.98
16 | YQASYYRRGDR [LTK_Y677_R673Q] | 0.418 | 0.442 | 0.684 | 0.526 | 0.523 | 0.57 | 0.453 | 0.492 | 0.635 | 0.527 | 0.399 | 0.713 | 0.685 | 0.403 | 0.411 | 0.641
17 | QNTGGYYDLYG [PTPN11_Y62_D61G] | 7.13 | 0.755 | 1 | 10 | 8.88 | 8.85 | 1.85 | 8.15 | 6.15 | 5.87 | 2.78 | 1.64 | 1.32 | 2.69 | 13.8 | 1.01

Row | Sequence | SH2 binding enrichment (c-Src SH2) | SH2 binding enrichment (SHP2-C SH2) | SH2 binding enrichment (Grb2 SH2) | phosphorylation enrichment (FGFR3) | phosphorylation enrichment (MERTK) | phosphorylation enrichment (Hck) | phosphorylation enrichment (EPHB1) | phosphorylation enrichment (Fyn) | phosphorylation enrichment (Jak2) | phosphorylation enrichment (c-Src) | phosphorylation enrichment (EPHB2) | phosphorylation enrichment (Fes) | phosphorylation enrichment (AncSZ) | phosphorylation enrichment (Fer (mouse)) | phosphorylation enrichment (FGFR1) | phosphorylation enrichment (c-Abl (mouse))
18 | EKLQQYIAPGM [EPHB3_Y600] | 0.47 | 0.734 | 0.696 | 0.506 | 0.328 | 0.363 | 0.401 | 0.334 | 0.927 | 0.412 | 0.35 | 0.759 | 0.589 | 0.435 | 0.389 | 0.582
19 | MLEVPYVDRNS [F10_Y384] | 0.457 | 0.708 | 0.724 | 0.643 | 0.317 | 0.453 | 0.499 | 0.382 | 0.789 | 0.395 | 0.494 | 0.89 | 0.847 | 0.434 | 0.411 | 0.611
20 | LGQRIYQYIRS [DYRK1B_Y271_Q275R] | 3.25 | 1.51 | 1.14 | 0.959 | 7.5 | 5.58 | 11.1 | 1.65 | 1.98 | 3.09 | 3.2 | 1.56 | 1.42 | 4.1 | 1.54 | 2.38
21 | TGNGFYFRVFS [MYBPC3_Y1136_I1131T_YF] | 0.363 | 0.62 | 0.705 | 0.763 | 0.36 | 0.456 | 0.65 | 0.393 | 1.32 | 0.374 | 0.517 | 1.33 | 1.1 | 0.543 | 0.433 | 0.929
22 | PGRRFYVVACD [RNASE3_Y134] | 0.849 | 0.569 | 1.05 | 0.916 | 1.22 | 0.733 | 0.536 | 0.389 | 2.05 | 2.16 | 1.19 | 1.65 | 1.43 | 0.52 | 0.654 | 1.24
23 | AFSLKYDQQTQ [SYTL4_Y366_E367D] | 0.555 | 0.64 | 0.824 | 0.784 | 0.406 | 0.614 | 0.484 | 0.522 | 1.03 | 0.48 | 0.69 | 1.14 | 1.03 | 0.485 | 0.539 | 0.716
24 | RASSVFTRSTG [CCR5_Y339_Y339F] | 0.455 | 0.778 | 0.644 | 0.797 | 0.624 | 0.579 | 0.619 | 0.868 | 0.766 | 0.821 | 0.468 | 0.732 | 0.73 | 0.736 | 0.589 | 0.861
25 | HSDYQYGQRSQ [PKP2_Y168_S169G] | 0.567 | 1.1 | 1.01 | 0.457 | 0.439 | 0.574 | 0.449 | 0.578 | 0.446 | 0.402 | 0.335 | 0.44 | 0.618 | 0.478 | 0.357 | 0.484
26 | IRKAEYPFSSE [ATP2C1_Y452] | 0.471 | 0.598 | 0.89 | 0.424 | 0.341 | 0.404 | 0.414 | 0.363 | 0.594 | 0.365 | 0.341 | 0.758 | 0.595 | 0.366 | 0.392 | 0.454
27 | GPIIRYDLGGA [CYP11B1_Y81_F79I] | 0.495 | 0.851 | 0.645 | 0.498 | 0.477 | 0.384 | 0.585 | 0.412 | 0.626 | 0.405 | 0.366 | 0.723 | 0.648 | 0.396 | 0.617 | 0.518
28 | TFINKYQGKLF [HGD_Y249_V245F] | 0.629 | 0.78 | 0.726 | 0.457 | 0.631 | 0.368 | 0.391 | 0.414 | 0.457 | 0.347 | 0.346 | 0.589 | 0.566 | 0.358 | 0.387 | 0.52
29 | LFQAKYQIRYR [CRLF1_Y272] | 1.22 | 1.67 | 1.46 | 0.789 | 0.465 | 0.763 | 0.79 | 0.477 | 0.949 | 0.531 | 0.517 | 1.33 | 1.07 | 0.325 | 0.566 | 0.779
30 | GDDLSYGDVPP [IRS1_Y151_E147D] | 0.573 | 0.549 | 0.752 | 0.576 | 0.413 | 0.535 | 0.543 | 0.426 | 1.04 | 0.63 | 0.588 | 1.24 | 1.11 | 0.61 | 0.479 | 0.751
31 | AGDGRYEVLFL [SEMA3F_Y478_A474G] | 7.93 | 0.573 | 0.692 | 0.786 | 1.08 | 0.772 | 0.658 | 0.455 | 0.927 | 0.545 | 0.667 | 1.02 | 0.94 | 4.36 | 0.533 | 0.758
32 | HRAVEYLLTGI [RAD23A_Y197] | 0.575 | 0.846 | 0.851 | 0.817 | 0.549 | 0.7 | 0.846 | 0.739 | 0.736 | 0.458 | 0.636 | 1.02 | 0.991 | 0.488 | 0.8 | 0.709
33 | EPFELYCEMGS [CBL_Y371_Q367P_YF] | 0.397 | 0.558 | 0.764 | 1.22 | 1.16 | 1.51 | 2.64 | 1.26 | 1.38 | 1.21 | 2.31 | 1.55 | 1.68 | 0.749 | 0.897 | 0.848
